Assay results: patent US9187553

Biological target: recombinant human FceRIa D2/D1 subunit (human) (UniProt P12319)
Test: ELISA, IgE captured by His-tagged receptor on Ni-treated plate

UniProt P12319, sequence (P12319 26-205): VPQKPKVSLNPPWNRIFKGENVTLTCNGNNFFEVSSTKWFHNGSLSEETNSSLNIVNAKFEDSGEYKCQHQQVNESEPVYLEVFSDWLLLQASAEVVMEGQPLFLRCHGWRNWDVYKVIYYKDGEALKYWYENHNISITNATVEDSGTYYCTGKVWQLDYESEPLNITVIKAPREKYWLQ

Work on human myeloma IgE (BED) (antibody) yielded an OD signal at 50 ng/ml of 1.2 OD.
